The conditions of series [1]: cited from earlier work.
A short description of series [2]: pKa / isoelectric point and pH-dependent loading into AP microfiber suspensions. The format is physicochemical. The conditions noted are these: FIG. 4. The source says: Agent loading level can also be pH and/or charge-dependent and loading of the agent(s) may be controlled and/or optimized based using the pKa and isoelectric (pI) point of the agent. […] Accordingly, agent loading and encapsulation efficiency may be optimized/maximized by loading gel suspensions at a pH above the pKa of the gelator(s) and a pH which is below the isoelectric (pI) point of the agent(s) which are being loaded onto the gel.

Series [3] can be described thus: Encapsulation efficiency in self-assembled AP microfibers versus non-assembled AP powder suspension (Coomassie Assay). The format is physicochemical. The settings on record: 10 mg/mL AP mixed with equal volume of 2 mg/mL mAb in PBS, 22° C. for 2 hours, FIG. 5. The procedure: Ascorbyl palmitate (AP) microfiber suspensions were prepared using the self-assembly process described in Example 1 or, alternatively, using a non-assembled AP particulate used as-is from the manufacturer (USP grade ascorbyl palmitate, Sigma-Aldrich). […] After loading/incubation at 22° C. for 2 hours, the suspensions were centrifuged at 20,000×g for 10 minutes at 4° C. The supernatant was then removed and tested for soluble protein via the Coomassie Assay to determine the encapsulation efficiency.

Series [4] concerns the target T1, TNF-α (Homo sapiens, UniProt P01375).
T1 construct: host or cells: added to murine fibroblast L929 cells
Put plainly: TNF-α activity assay with fibroblast L929 cells (L929 viability assay). The format is cell-based. The conditions noted are these: 1 ng/mL TNF-α in 2% serum, compared to IFX and ADA controls, FIG. 2. The procedure:
Activity was measured using the TNF-α activity assay with fibroblast L929 cells (Gibco cytotoxicity assay for recombinant proteins).

Series [5] is described as follows: Time-dependent loading of antibody into ascorbyl palmitate microfibers (HPLC). The format is physicochemical. Here is the method:
The efficiency of antibody (i.e., IFX or ADA) loading into ascorbyl palmitate microfibers was found be time dependent. […] (and following 3 washes with PBS by centrifugation at 5000 rpm for 10 mins at 4° C.). However, by extending the loading/incubation time to 20 hours (2 hours at 22° C., 18 hours at 4° C.), the loading increased to 14% (wt/wt %).

The pKa is the negative logarithm of the acid dissociation constant.

T1 sequence (P01375 77-233 limits assumed): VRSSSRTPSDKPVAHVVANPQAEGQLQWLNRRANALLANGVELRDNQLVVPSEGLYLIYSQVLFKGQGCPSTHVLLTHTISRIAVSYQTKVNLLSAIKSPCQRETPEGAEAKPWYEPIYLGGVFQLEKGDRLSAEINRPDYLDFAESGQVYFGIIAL

On to `CCCCCCCCCCCCCCCC(=O)OC[C@H](O)[C@H]1OC(=O)C(O)=C1O` [AP, ascorbyl palmitate], for which the pKa in series [1] is on record as 4.4.

For the molecule adalimumab, the “influence of pH on loading and encapsulation efficiency” value in series [2] was “highest loading and encapsulation efficiencies are observed at a pH above the pKa of AP but below the pI”. For the same molecule, the “encapsulation of antibody, self-assembled AP microfiber suspension relative to non-self-assembled AP powder suspension” value in series [3] is on record as “greater encapsulation”. Also, in series [4], the “activity of mAb released from gels against TNF-α” value is listed as “active against TNF-α”.

Take infliximab [IFX]: the loading in series [5] (after 10 minutes of loading/incubation at 22° C., following 3 washes with PBS) is on record as 7 % (wt/wt %); in series [5] (loading/incubation time 20 hours (2 hours at 22° C., 18 hours at 4° C.)) it was 14 % (wt/wt %). Besides, the theoretical maximum loading result in series [5] (calculated from amounts of IFX and AP combined during loading) is “approximately 16.7 % (wt/wt %)”.

(Values after patent US20230364014A1, “SELF-ASSEMBLED GELS FOR CONTROLLED DELIVERY OF BIOLOGICS AND METHODS OF MAKING THEREOF” (Alivio Therapeutics, Inc., priority 2018, published 2023).)
